Test results as given in patent US20240189392A1 (AMBRX, published 2024).
Several values for one entry are separate records, joined by “and”; a condition that tells them apart may be missing. Equal values may be shown once. Values belong to the binder of their own block, whether it stands above or below them. Positions of bridges follow the written chain, without caps; N, C: chain ends. Non-standard residues stand in square brackets, D forms with d. Chains are numbered I, II in the order given. No end group written: not given here. PEG20K = 20 kDa polyethylene glycol, linked to pAF (e.g. via oxime linkage); Phe(4-Ac) = CC(=O)c1ccc(C[C@H](N)C(=O)O)cc1

Key:
Assay in all cases: cell-based or functional assay
human RXFP1 [1] = target: T1, human RXFP1 (human, UniProt Q9HBX9 1-757)
T1 sequence (looked up): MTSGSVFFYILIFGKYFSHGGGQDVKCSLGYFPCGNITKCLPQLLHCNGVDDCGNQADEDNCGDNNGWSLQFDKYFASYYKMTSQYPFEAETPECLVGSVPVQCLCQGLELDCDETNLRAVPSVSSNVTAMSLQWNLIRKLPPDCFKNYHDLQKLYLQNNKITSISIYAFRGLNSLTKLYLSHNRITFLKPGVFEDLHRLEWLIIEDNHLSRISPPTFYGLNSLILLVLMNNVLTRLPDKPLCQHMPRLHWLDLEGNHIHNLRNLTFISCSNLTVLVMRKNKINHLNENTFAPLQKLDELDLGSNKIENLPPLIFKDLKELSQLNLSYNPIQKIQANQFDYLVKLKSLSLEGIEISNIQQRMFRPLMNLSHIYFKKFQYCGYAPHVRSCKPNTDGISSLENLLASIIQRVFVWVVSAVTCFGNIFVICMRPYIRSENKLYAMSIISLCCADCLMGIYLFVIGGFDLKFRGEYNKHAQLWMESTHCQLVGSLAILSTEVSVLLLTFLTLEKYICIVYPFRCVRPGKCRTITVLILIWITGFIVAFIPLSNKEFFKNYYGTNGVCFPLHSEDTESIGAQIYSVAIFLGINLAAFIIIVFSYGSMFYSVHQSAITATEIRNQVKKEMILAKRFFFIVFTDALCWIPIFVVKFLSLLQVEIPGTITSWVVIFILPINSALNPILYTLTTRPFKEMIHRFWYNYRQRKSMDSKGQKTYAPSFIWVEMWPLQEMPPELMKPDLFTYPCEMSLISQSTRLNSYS

human RXFP1 [2] = target: T1, human RXFP1; remark: listed apart in the source
human RXFP4 = human RXFP4 (human, UniProt Q8TDU9 1-374)
cynomolgus monkey RXFP1 = target: T2, cynomolgus monkey RXFP1 (cynomolgus monkey, UniProt H9ERA2 1-757 (rhesus entry))
T2 sequence: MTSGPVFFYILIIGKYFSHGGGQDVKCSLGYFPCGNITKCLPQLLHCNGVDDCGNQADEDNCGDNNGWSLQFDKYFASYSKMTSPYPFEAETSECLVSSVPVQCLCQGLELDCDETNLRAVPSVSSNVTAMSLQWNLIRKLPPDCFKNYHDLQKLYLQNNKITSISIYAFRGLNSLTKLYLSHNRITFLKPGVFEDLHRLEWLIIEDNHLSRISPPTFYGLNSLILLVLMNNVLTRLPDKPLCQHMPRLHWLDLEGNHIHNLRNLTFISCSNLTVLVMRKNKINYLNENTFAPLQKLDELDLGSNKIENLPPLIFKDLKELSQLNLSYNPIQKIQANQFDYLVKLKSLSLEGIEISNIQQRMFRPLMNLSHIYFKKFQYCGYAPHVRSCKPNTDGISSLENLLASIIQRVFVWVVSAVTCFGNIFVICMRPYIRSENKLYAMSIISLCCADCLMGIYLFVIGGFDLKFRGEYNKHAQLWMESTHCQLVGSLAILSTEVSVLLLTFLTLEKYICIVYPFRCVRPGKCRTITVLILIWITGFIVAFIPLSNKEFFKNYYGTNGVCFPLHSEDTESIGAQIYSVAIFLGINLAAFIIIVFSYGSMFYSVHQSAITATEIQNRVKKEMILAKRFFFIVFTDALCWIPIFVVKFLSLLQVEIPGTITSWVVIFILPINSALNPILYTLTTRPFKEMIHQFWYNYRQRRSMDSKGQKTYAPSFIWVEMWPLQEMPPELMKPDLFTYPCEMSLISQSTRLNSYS

human RXFP3 = target: T3, human RXFP3 (human, UniProt Q9NSD7 1-469)
T3 sequence (looked up): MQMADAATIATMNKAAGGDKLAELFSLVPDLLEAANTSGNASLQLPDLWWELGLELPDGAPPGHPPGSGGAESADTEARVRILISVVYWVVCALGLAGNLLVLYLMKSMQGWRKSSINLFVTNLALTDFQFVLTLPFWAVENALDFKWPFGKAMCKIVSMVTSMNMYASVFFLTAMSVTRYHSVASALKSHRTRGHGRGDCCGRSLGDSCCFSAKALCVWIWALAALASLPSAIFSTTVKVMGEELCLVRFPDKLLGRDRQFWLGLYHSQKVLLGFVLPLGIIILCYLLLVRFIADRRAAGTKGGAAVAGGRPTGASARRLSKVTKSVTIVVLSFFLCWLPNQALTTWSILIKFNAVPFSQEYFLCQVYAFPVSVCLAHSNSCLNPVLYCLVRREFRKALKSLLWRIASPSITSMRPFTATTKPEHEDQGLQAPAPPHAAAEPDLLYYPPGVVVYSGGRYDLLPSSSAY

rat RXFP1 = target: T4, rat RXFP1 (rat, UniProt Q6R6I6 1-758)
T4 sequence (looked up): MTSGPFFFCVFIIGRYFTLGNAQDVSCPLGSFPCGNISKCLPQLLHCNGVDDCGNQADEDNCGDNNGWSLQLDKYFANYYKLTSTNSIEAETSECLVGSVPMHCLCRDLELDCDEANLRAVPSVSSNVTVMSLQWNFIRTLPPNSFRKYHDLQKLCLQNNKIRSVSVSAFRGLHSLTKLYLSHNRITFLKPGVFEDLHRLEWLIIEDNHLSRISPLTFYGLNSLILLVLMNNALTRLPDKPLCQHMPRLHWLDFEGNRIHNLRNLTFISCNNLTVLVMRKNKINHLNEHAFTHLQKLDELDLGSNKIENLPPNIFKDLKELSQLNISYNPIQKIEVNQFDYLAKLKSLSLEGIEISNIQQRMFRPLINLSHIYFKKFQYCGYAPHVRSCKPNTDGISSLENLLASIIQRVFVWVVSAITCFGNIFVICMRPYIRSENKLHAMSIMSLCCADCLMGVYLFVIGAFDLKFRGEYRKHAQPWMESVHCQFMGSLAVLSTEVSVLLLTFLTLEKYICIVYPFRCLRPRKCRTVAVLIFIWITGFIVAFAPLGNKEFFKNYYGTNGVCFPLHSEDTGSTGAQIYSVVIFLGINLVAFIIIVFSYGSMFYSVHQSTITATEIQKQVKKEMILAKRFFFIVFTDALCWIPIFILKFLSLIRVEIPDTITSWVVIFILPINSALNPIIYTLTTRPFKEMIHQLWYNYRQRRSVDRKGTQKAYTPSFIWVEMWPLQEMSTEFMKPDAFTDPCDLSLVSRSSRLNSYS

dog RXFP1 = dog RXFP1 (dog)
human RXFP1 [3] = target: T1, human RXFP1; remark: listed apart in the source
mouse RXFP1 = target: T5, mouse RXFP1 (mouse, UniProt Q6R6I7 1-758)
T5 sequence (looked up): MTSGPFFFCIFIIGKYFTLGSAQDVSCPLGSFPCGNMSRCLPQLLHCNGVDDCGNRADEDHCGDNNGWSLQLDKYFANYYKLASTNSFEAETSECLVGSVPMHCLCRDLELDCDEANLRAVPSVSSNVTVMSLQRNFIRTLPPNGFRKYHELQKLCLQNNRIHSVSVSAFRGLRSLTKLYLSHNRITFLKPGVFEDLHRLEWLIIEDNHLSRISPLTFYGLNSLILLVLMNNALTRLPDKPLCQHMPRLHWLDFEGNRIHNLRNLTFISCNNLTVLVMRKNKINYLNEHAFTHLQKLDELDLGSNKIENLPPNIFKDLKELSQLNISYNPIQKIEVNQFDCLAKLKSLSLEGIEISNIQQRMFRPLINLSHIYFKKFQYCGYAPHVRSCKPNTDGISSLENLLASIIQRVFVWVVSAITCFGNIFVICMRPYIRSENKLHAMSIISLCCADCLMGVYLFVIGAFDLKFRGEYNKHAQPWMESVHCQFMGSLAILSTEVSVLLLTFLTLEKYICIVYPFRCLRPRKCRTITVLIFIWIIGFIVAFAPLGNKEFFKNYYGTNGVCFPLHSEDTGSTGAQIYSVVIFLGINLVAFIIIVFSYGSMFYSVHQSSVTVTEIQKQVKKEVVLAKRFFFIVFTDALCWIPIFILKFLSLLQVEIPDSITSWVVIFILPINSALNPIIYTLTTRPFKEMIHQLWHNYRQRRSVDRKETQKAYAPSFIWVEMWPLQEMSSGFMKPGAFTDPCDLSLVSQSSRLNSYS

human RXFP4, sequence (Q8TDU9 whole entry): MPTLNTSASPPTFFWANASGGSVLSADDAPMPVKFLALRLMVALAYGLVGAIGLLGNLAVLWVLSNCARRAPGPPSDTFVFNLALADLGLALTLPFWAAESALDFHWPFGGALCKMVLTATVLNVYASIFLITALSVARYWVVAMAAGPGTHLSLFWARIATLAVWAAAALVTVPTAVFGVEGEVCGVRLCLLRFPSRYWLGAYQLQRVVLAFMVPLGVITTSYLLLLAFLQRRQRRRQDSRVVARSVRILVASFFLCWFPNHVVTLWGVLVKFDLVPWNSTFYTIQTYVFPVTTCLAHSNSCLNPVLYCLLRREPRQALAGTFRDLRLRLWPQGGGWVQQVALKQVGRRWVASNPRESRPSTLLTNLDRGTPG

B1: RLX-A-AA5-20KPEG (ligand)
chain 1: QLYSXLANKCCHVGCTKRSLARFC
chain 2: ASWMEEVIKLCGRELVRAQIAICGMSTWS
modifications: not fully specified; para-acetylphenylalanine (pAF) at position 5 of the A chain, 20K PEGylated
Functional Assay Raw EC50 Values [ng/mL]; cAMP increase in THP-1 cells, 11/5/2010 (human RXFP1 [1]): 41 ng/mL | In vitro Activity Fold Loss (human RXFP1 [2]): 12 fold

B4: RLX-A-AR18-20KPEG (ligand)
chain 1: QLYSALANKCCHVGCTKXSLARFC
chain 2: ASWMEEVIKLCGRELVRAQIAICGMSTWS
modifications: not fully specified; para-acetylphenylalanine (pAF) at position 18 of the A chain, 20K PEGylated
Functional Assay Raw EC50 Values [ng/mL]; cAMP increase in THP-1 cells, 11/5/2010 (human RXFP1 [1]): 68 ng/mL | In vitro Activity Fold Loss (human RXFP1 [2]): 21 fold

B6: RLX-D-AL2-20KPEG (ligand)
chain 1: QXYSALANKCCHVGCTKRSLARFC
chain 2: DSWMEEVIKLCGRELVRAQIAICGMSTWS
modifications: not fully specified; para-acetylphenylalanine (pAF) at position 2 of the A chain, 20K PEGylated
Functional Assay Raw EC50 Values [ng/mL]; cAMP increase in THP-1 cells, 11/5/2010 (human RXFP1 [1]): 43 ng/mL | In vitro Activity Fold Loss (human RXFP1 [2]): 17 fold

B9: RLX-A-BW28-20KPEG (ligand)
chain 1: QLYSALANKCCHVGCTKRSLARFC
chain 2: ASWMEEVIKLCGRELVRAQIAICGMST[Phe(4-Ac)](PEG20K)S
modifications: not fully specified (bridges); ends and bridges not checked
Functional Assay Raw EC50 Values [ng/mL]; cAMP increase in THP-1 cells, 11/4/2010 (human RXFP1 [1]): 172 ng/mL | In vitro Activity Fold Loss (human RXFP1 [2]): 48 fold

Now from value to binder:

Functional Assay Raw EC50 Values [ng/mL]; cAMP increase in THP-1 cells, 11/5/2010 (human RXFP1 [1]): 58 ng/mL | In vitro Activity Fold Loss (human RXFP1 [2]): 22 fold
B2: RLX-D-BE5-20KPEG (ligand)
chain 1: QLYSALANKCCHVGCTKRSLARFC
chain 2: DSWM[Phe(4-Ac)](PEG20K)EVIKLCGRELVRAQIAICGMSTWS
modifications: not fully specified (bridges); ends and bridges not checked

Functional Assay Raw EC50 Values [ng/mL]; cAMP increase in THP-1 cells, 11/5/2010 (human RXFP1 [1]): 56 ng/mL | In vitro Activity Fold Loss (human RXFP1 [2]): 17 fold
B3: RLX-A-AV13-20KPEG (ligand)
chain 1: QLYSALANKCCHXGCTKRSLARFC
chain 2: ASWMEEVIKLCGRELVRAQIAICGMSTWS
modifications: not fully specified; para-acetylphenylalanine (pAF) at position 13 of the A chain, 20K PEGylated

Functional Assay Raw EC50 Values [ng/mL]; cAMP increase in THP-1 cells, 11/4/2010 (human RXFP1 [1]): 54 ng/mL | In vitro Activity Fold Loss (human RXFP1 [2]): 15 fold
B5: RLX-A-BV7-20KPEG (ligand)
chain 1: QLYSALANKCCHVGCTKRSLARFC
chain 2: ASWMEE[Phe(4-Ac)](PEG20K)IKLCGRELVRAQIAICGMSTWS
modifications: not fully specified (bridges); ends and bridges not checked

cAMP Assay EC50 (nM), inhibition of forskolin-induced cAMP, human RXFP4/CHO-K1 cells (human RXFP4): > 3000 nM | cAMP Assay EC50 (nM), cyno RXFP1/CHO-K1 cells (cynomolgus monkey RXFP1): 0.06 nM | cAMP Assay EC50 (nM), inhibition of forskolin-induced cAMP, human RXFP3/CHO-K1 cells (human RXFP3): > 3000 nM | cAMP Assay EC50 (nM), rat RXFP1/CHO-K1 cells (rat RXFP1): 0.03 nM | cAMP Assay EC50 (nM), dog RXFP1/CHO-K1 cells (dog RXFP1): 0.56 nM | cAMP Assay EC50 (nM), THP-1 cells (human RXFP1 [3]): 0.3 nM | cAMP Assay EC50 (nM), hRXFP1/CHO-K1 cells (human RXFP1 [3]): 0.1 nM | cAMP Assay EC50 (nM), mouse RXFP1/CHO-K1 cells (mouse RXFP1): 0.1 nM | Functional Assay Raw EC50 Values [ng/mL]; cAMP increase in THP-1 cells, 11/4/2010 (human RXFP1 [1]): 1.5 ng/mL | Functional Assay Raw EC50 Values [ng/mL]; cAMP increase in THP-1 cells, 11/5/2010 (human RXFP1 [1]): 1.5 ng/mL and 1 ng/mL
B7: wild-type relaxin (human relaxin 2) (ligand)
chain 1: QLYSALANKCCHVGCTKRSLARFC
chain 2: DSWMEEVIKLCGRELVRAQIAICGMSTWS
modifications: disulfide I:10-I:15, I:11-II:11, I:24-II:23

Functional Assay Raw EC50 Values [ng/mL]; cAMP increase in THP-1 cells, 11/4/2010 (human RXFP1 [1]): 172 ng/mL | In vitro Activity Fold Loss (human RXFP1 [2]): 48 fold
B8: RLX-A-BA18-20KPEG (ligand)
chain 1: QLYSALANKCCHVGCTKRSLARFC
chain 2: ASWMEEVIKLCGRELVR[Phe(4-Ac)](PEG20K)QIAICGMSTWS
modifications: not fully specified (bridges); ends and bridges not checked

Functional Assay Raw EC50 Values [ng/mL]; cAMP increase in THP-1 cells, 11/5/2010 (human RXFP1 [1]): 45 ng/mL | In vitro Activity Fold Loss (human RXFP1 [2]): 17 fold
B10: RLX-A-BE5-20KPEG (ligand)
chain 1: QLYSALANKCCHVGCTKRSLARFC
chain 2: ASWM[Phe(4-Ac)](PEG20K)EVIKLCGRELVRAQIAICGMSTWS
modifications: not fully specified (bridges); ends and bridges not checked

Functional Assay Raw EC50 Values [ng/mL]; cAMP increase in THP-1 cells, 11/4/2010 (human RXFP1 [1]): 3.6 ng/mL | Functional Assay Raw EC50 Values [ng/mL]; cAMP increase in THP-1 cells, 11/5/2010 (human RXFP1 [1]): 3.3 ng/mL and 2.6 ng/mL
B11: RLX-A-WT (human relaxin 2 with alanine at the first position of the B chain) (ligand)
chain 1: QLYSALANKCCHVGCTKRSLARFC
chain 2: ASWMEEVIKLCGRELVRAQIAICGMSTWS
modifications: not fully specified (bridges); ends and bridges not checked
